Assay results taken from a protein production outcome set (Wang et al. 2014).

Test: label from the status in PepcDB records

Sequence | protein production
MRILSIIRIIGILVMCFSGTMLVPAFVALIYGDGGGKAFMQAFMLSLIAGTLLWWPCHHHKQELRSRDGFLIVVAFWLVLGSLATLPLLLFDSPHLTIASAVFEAFSGLTTTGATVMTGLDNLPKSILFYRQFLQWLGGMGIIVLAVAIIPLLGIGGTQLYRAESSGPLKDQKSLPKISEVAKALWIIYASLTVLCAIAYWLSGMNLFDAIGHSFSTISNGGFSTHDASIGYFNQASIYWVTTIFMLIGGVNFSLHISAFLALGKRNIWRNYWKDPEFRFFLTMQIIFIGIVSLSLYGYGLVSDINEAVTKGALQLTSMSMTAGYTIFDIDNLPPFIGLLLVISAVIGGCGGSTTGGLKAIRTLILWKQIDRELHSLIHPNLVQPIRIGKNRLAPRMIESIWAFFIIFILVYWGCVFAVILCGMNTFDAMGAVFATLTNAGPGLGFIHESFIGVPESAKLVFSFAMICGRLEMFSLIVLFIPSYWKK | failed
MRISAKKPRPRPIFALCAPYPEAQPQEAEVRVRTSILAFVLAAVSTIAGAQDSGLTSLETTDAGRSWLAVGRLDIDGTGFCTGALIAPDLVLTAAHCLYDKTTGQRIDPARIEFLAGWRRGRASAYRRVARAVHHPDYLYEGAVTAERVRNDLALLKLSQPIRNTTVVPFETGNRPMRGDAVQVVSYAHDRAEAPSLQEACAVMARQQGVLVMSCDVDFGASGSPVFSLSDSTPRIVSVVSAKAEVDGARVALGTSLDDTLTFLMGELDSHKRAEIPTVPRVNRLSASGQGSASGAKFVRP | failed
MRITVMTAGEQIITLDVDSQETVENVKALLEVESNVPIQQQQLLYNGNEMGNSDKLSALGVKDDDLLMMMVSNASSGSATSAAGNDLGMNPDGSALNPAAFQQHIRGDSNLMGQLFQNDPELAQVISGSDLNKLQDVLRARHRQRSVLQRQKEEELALLYADPFDVEAQRKIEAAIRQKGIDENWEAALEHNPEGFARVIMLYVDMEVNGVPLKAFVDSGAQSTIISKSCAERCGLLRLMDQRYKGIAHGVGQTEILGRIHVAPIKIGNNFYPCSFVVLDSPNMEFLFGLDMLRKHQCTIDLKENVMTVGGGEVSVPFLQEKDIPSRFLDEERVPNDASSSGATVPSGFTEKKNNTVANPTSQQPKRQNTSEGPEFEAKIAKLVELGFSRDSVIQALKLFEGNEEQAAGFLFGG | failed
MRIYLFLNKNYKIFILFLILILNSKLAYSQRLIRIGKEEMKNKNYIQAIETLSDAIKKYPKVQLGYYFLSIAYRENNQLTEAEGALLDGIAVGGEIDYILYYELGNIMFNRGEGYYPLAIKYYSNSIKSRPNYDSALLNRANAYVQQGKITSKEKEYQKAWDSYTMAIHDYSQFITLRSKTEKKDSILLIISYLRNEKINLEQLDKSLKGRTEHIVYAKEDKNQILKDSFKDNLETNSLIELEKLNWQEELYIDE | failed
MRIYLIGFMCSGKSTVGSLLSRSLNIPFYDVDEEVQKREGLSIPQIFEKKGEAYFRKLEFEVLKDLSEKENVVISTGGGLGANEEALNFMKSRGTTVFIDIPFEVFLERCKDSKERPLLKRPLDEIKNLFEERRKIYSKADIKVKGEKPPEEVVKEILLSLEGNALGG | not failed
MRKDETSNTSPDISAAQPASALRYHLRPPRRNDGAAIHQLVSECPPLDLNSLYAYLLLCEHHAHTCVVAESPGGRIDGFVSAYLLPTRPDVLFVWQVAVHSRARGHRLGRAMLGHILERQECRHVRHLETTVGPDNQASRRTFAGLAGERGAHVSEQPFFDRQAFGGADHDDEMLLRIGPFTHPPH | failed
MRKELCRNFQRGSCRYGENCRFLHPQQAKPNNPFGFGTQNQQQQQQQQQQNSSNPFGFGVQSGGSSRPNQFQNTWSRTASTPTGGGAAASTQQTGKQTQPADHKCTDPAACKRVMQDDFKNERPMWKLTCYGHWKYFPCDVTGDISYEELRAVAYEEAKRGIPLQSIVERERNLQNSKIAEFENFLRNPYKGSVTANQSPFAATTPSIFPQSSQINSPSPAFSGFNQQTAFSNTNAGGLSSSGPPNAFASFNQQTTFPNTNAGGVSSSGPPNPFASFTQQSNNQQTAFSNTNAGGLSSSGPPNAFASFNKQPNAFSVNTPQPVPSGPSGFQTNPSTTFKPASFGPGPGFATTPQNNNIFGQSTPTPATNTSQNNQTAFNFNVPVASFTAPAINTTNTSSGTELQIGGDPVDSSIWLKEKWNPGEIPEQAPPDAFV | failed
